Assay in all cases: cell-based or functional assay
The target of experiment [1] is nCas9-LZ1 (NLS-SpCas9(H840A)-NLS-EE12RR345L(leucine zipper)) (Streptococcus pyogenes serotype M1) (UniProt Q99ZW2).
For experiment [2], the target named is nCas9(1-1172)-Npu N intein (Streptococcus pyogenes serotype M1) (UniProt Q99ZW2).
Experiment [3] addresses constitutively active SAMHD1 (SAMHD1 (T592A)) (UniProt Q9Y3Z3).

Chain of constitutively active SAMHD1 (SAMHD1 (T592A)) (Q9Y3Z3 whole entry T592A): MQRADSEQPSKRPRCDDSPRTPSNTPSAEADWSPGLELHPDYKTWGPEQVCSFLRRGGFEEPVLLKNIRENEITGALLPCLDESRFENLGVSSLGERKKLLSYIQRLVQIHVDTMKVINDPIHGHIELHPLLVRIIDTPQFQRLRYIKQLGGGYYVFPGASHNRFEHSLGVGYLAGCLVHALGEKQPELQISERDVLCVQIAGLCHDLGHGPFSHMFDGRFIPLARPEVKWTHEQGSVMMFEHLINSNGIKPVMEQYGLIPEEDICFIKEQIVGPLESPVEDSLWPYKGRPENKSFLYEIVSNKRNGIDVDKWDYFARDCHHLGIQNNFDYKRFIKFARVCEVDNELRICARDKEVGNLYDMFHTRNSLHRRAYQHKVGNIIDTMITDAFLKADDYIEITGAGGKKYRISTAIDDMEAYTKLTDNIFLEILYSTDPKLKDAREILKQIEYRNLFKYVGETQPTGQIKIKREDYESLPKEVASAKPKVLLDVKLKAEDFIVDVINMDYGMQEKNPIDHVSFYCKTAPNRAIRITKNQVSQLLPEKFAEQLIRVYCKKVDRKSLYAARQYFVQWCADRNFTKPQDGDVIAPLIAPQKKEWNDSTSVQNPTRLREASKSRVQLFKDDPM

On to “LZ2-mlvRT (RR12EE345L(leucine zipper)-mlvRTv(D200N, L603W, T306K, W313F, T330P)-NLS) (enzyme)”, for which, in experiment [1], the editing efficiency (BFP to GFP conversion in HEK293T-BFP cells) stood at 38%.

The substance “Npu C intein-nCas9(1173-1368 with S1173C)-mlvRT5M (enzyme)” returned an editing efficiency (% GFP+) in experiment [2] of 29%.

“VPX^RH2-1 (variant of VPX from HIV-2 clinical isolate RH2-1) (from UniProt P20881 1-112)” returned an editing efficiency with RW2I, edit 2 nt from the nick, SAMHD1 (T592A) coexpressed in experiment [3] of 64%.

For the substance “Vpx peptide (Hiv2-rod Vpx) (from UniProt P06939 1-112)”, the editing efficiency relative to that without SAMHD1^p-, edit 65 nt from the nick in experiment [3] is 78%.

These data come from US20230076357A1.
